# B1: Serine protease HTRA3 (Homo sapiens), P83110-1 (parent)
# chain: MQARALLLAALAALALAREPPAAPCPARCDVSRCPSPRCPGGYVPDLCNCCLVCAASEGEPCGGPLDSPCGESLECVRGLCRCRWSHAVCGTDGHTYANVCALQAASRRALQLSGTPVRQLQKGACPLGLHQLSSPRYKFNFIADVVEKIAPAVVHIELFLRHPLFGRNVPLSSGSGFIMSEAGLIITNAHVVSSNSAAPGRQQLKVQLQNGDSYEATIKDIDKKSDIATIKIHPKKKLPVLLLGHSADLRPGEFVVAIGSPFALQNTVTTGIVSTAQREGRELGLRDSDMDYIQTDAIINYGNSGGPLVNLDGEVIGINTLKVTAGISFAIPSDRITRFLTEFQDKQIKDWKKRFIGIRMRTITPSLVDELKASNPDFPEVSSGIYVQEVAPNSPSQRGGIQDGDIIVKVNGRPLVDSSELQEAVLTESPLLLEVRRGNDDLLFSIAPEVVM
# partner: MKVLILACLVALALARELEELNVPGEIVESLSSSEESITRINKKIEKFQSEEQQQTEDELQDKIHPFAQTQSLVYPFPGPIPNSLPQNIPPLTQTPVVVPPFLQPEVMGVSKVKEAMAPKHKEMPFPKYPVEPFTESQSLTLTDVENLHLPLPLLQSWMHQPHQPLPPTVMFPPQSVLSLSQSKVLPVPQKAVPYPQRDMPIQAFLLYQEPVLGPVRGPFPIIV
# B2: Serine protease HTRA3 (Homo sapiens), P83110-1 (parent)
# chain: B1 chain
# Variants of: B1
# Conditions: with casb_bovin CSN2, P02666
row,effect of a mutation on the interaction,Variant
1,with no effect,MQARALLLAALAALALAREPPAAPCPARCDVSRCPSPRCPGGYVPDLCNCCLVCAASEGEPCGGPLDSPCGESLECVRGLCRCRWSHAVCGTDGHTYANVCALQAASRRALQLSGTPVRQLQKGACPLGLHQLSSPRYKFNFIADVVEKIAPAVVHIELFLRHPLFGRNVPLSSGSGFIMSEAGLIITNAHVVSSNSAAPGRQQLKVQLQNGDSYEATIKDIDKKSDIATIKIHPKKKLPVLLLGHSADLRPGEFVVAIGSPFALQNTVTTGIVSTAQREGRELGLRDSDMDYIQTDAIINYGNSGGPLVNLDGEVIGINTLKVTAGISFAIPSDRITRFLTEFQDKQIKDWKKRFIGIRMATITPSLVDALKASNPDFPEVSSGIYVAEVAPNSPSQRGGIQDGDIIVKVNGRPLVDSSELQEAVLTESPLLLEVRRGNDDLLFSIAPEVVM [R362A;E371A;Q389A]

# Variants of: B2
# Conditions: with xiap_human XIAP
row,effect of a mutation on the interaction,Variant
1,with no effect,MQARALLLAALAALALAREPPAAPCPARCDVSRCPSPRCPGGYVPDLCNCCLVCAASEGEPCGGPLDSPCGESLECVRGLCRCRWSHAVCGTDGHTYANVCALQAASRRALQLSGTPVRQLQKGACPLGLHQLSSPRYKFNFIADVVEKIAPAVVHIELFLRHPLFGRNVPLSSGSGFIMSEAGLIITNAHVVSSNSAAPGRQQLKVQLQNGDSYEATIKDIDKKSDIATIKIHPKKKLPVLLLGHSADLRPGEFVVAIGSPFALQNTVTTGIVSTAQREGRELGLRDSDMDYIQTDAIINYGNSGGPLVNLDGEVIGINTLKVTAGISFAIPSDRITRFLTEFQDKQIKDWKKRFIGIRMATITPSLVDALKASNPDFPEVSSGIYVAEVAPNSPSQRGGIQDGDIIVKVNGRPLVDSSELQEAVLTESPLLLEVRRGNDDLLFSIAPEVVM [R362A;E371A;Q389A]
